Laboratory results taken from patent US20120053225A1 (H LEE MOFFITT CANCER CENTER AND RESEARCH INSTITUTE, published 2012).

Experiments:
[1] = target: T1, endogenous Ack1 of mouse embryo fibroblasts (mouse, UniProt O54967 1-1055, limits assumed); experiment: co-IP with Ack1 antibodies from EGF-treated MEF lysates, immunoblot with pan-AKT antibodies
T1 construct: Endogenous protein immunoprecipitated from MEF lysates with anti-Ack1 antibodies; also called TNK2
Procedure: Membrane and cytosolic fractionation was performed using membrane fractionation kit (BioVision, Inc, CA). The nuclear/cytoplasmic fractionation was performed using protocol from Abcam (Abcam, Inc., Cambridge, Mass.). For immunoprecipitations, cells were lysed in receptor lysis buffer (RLB) containing 25 mmol/L Tris (pH 7.5), 500 mmol/L NaCl, 1% Triton X-100, 10% glycerol, phosphatase inhibitors (10 mmol/L NaF, 1 mmol/L Na₂VO₄), and protease inhibitor mix (Hoffmann-La Roche Inc., Switzerland). […] The kinase assay was performed using kit from Calbiochem.

[2] = target: T2, HA-tagged AKT Y176F mutant (UniProt P31749 1-480); experiment: pull-down of purified proteins on GST-Ack1 glutathione beads, immunoblot
T2 construct: also called Y176F mutant of AKT; HA-Y176F; not shown: HA tag

T1 sequence (O54967 whole entry): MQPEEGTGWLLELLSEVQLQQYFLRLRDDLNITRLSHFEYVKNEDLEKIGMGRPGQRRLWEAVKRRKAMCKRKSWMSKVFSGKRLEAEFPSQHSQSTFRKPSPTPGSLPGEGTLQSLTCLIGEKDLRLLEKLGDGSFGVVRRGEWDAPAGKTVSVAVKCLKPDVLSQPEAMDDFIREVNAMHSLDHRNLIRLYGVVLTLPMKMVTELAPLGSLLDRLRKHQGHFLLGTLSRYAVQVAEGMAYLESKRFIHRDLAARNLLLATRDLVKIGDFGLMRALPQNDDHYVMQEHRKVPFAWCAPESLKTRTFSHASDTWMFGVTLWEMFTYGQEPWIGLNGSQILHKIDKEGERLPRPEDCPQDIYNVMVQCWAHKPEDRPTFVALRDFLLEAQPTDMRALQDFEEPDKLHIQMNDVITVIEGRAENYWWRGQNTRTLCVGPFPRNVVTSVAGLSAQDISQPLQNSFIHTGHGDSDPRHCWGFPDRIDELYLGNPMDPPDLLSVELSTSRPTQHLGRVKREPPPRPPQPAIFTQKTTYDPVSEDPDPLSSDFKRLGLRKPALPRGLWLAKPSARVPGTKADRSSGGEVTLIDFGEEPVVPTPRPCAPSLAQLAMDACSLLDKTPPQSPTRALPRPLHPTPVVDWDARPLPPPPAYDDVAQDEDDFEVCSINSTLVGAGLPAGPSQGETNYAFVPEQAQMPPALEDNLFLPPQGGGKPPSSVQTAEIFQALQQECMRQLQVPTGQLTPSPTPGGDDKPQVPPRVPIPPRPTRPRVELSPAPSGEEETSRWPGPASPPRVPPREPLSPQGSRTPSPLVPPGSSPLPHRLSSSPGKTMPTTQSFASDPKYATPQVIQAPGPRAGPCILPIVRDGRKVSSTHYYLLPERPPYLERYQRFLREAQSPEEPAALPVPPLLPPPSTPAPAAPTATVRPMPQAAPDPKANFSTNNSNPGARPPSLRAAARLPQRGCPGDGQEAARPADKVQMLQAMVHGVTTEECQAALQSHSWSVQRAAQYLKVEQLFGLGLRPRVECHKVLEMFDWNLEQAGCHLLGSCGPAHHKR

binding result [1] | binding result [2] | Binder
binds |  | endogenous Akt1 of mouse embryo fibroblasts (enzyme, UniProt P31750 1-480, looked up, Endogenous protein in MEF lysates) MNDVAIVKEGWLHKRGEYIKTWRPRYFLLKNDGTFIGYKERPQDVDQRESPLNNFSVAQCQLMKTERPRPNTFIIRCLQWTTVIERTFHVETPEEREEWATAIQTVADGLKRQEEETMDFRSGSPSDNSGAEEMEVSLAKPKHRVTMNEFEYLKLLGKGTFGKVILVKEKATGRYYAMKILKKEVIVAKDEVAHTLTENRVLQNSRHPFLTALKYSFQTHDRLCFVMEYANGGELFFHLSRERVFSEDRARFYGAEIVSALDYLHSEKNVVYRDLKLENLMLDKDGHIKITDFGLCKEGIKDGATMKTFCGTPEYLAPEVLEDNDYGRAVDWWGLGVVMYEMMCGRLPFYNQDHEKLFELILMEEIRFPRTLGPEAKSLLSGLLKKDPTQRLGGGSEDAKEIMQHRFFANIVWQDVYEKKLSPPFKPQVTSETDTRYFDEEFTAQMITITPPDQDDSMECVDSERRPHFPQFSYSASGTA
 | no binding | GST-Ack1 (kinase, SH3 and CRIB domain), expressed in E. coli (enzyme, UniProt Q07912 110-476, looked up, domain: kinase, SH3 and CRIB domain; also called GST-tagged Ack1; not shown: GST tag) GEGPLQSLTCLIGEKDLRLLEKLGDGSFGVVRRGEWDAPSGKTVSVAVKCLKPDVLSQPEAMDDFIREVNAMHSLDHRNLIRLYGVVLTPPMKMVTELAPLGSLLDRLRKHQGHFLLGTLSRYAVQVAEGMGYLESKRFIHRDLAARNLLLATRDLVKIGDFGLMRALPQNDDHYVMQEHRKVPFAWCAPESLKTRTFSHASDTWMFGVTLWEMFTYGQEPWIGLNGSQILHKIDKEGERLPRPEDCPQDIYNVMVQCWAHKPEDRPTFVALRDFLLEAQPTDMRALQDFEEPDKLHIQMNDVITVIEGRAENYWWRGQNTRTLCVGPFPRNVVTSVAGLSAQDISQPLQNSFIHTGHGDSDPRHCW
